Laboratory results taken from article PMC3573033, “Allosteric Regulation of Serine Protease HtrA2 through Novel Non-Canonical Substrate Binding Pocket” (PLoS ONE, 2013).
One block for each binder: values may come before it.

Tests used:
[1] = target: T1, HtrA2 (High temperature requirement protease A2), mature (Δ133 HtrA2), wild type (UniProt O43464 134-458); experiment: ITC; MicroCal ITC200; 200 µl of wild type or N216A/S219A HtrA2 (20 to 50 µM) in the cell, titrated with 1.5 µl injections of 0.4 mM activator peptide; 20 mM Na2HPO4/NaH2PO4, 100 mM NaCl, pH 7.8; 25°C; one site-binding model; conditions: both partners purified
T1 construct: HtrA2 (High temperature requirement protease A2), mature form Δ133, 325 amino acids; numbers count on: the mature protein; source: E. coli BL21 (DE3) pLysS, purified (nickel-IDA, gel permeation chromatography)
T1 sequence (looked up): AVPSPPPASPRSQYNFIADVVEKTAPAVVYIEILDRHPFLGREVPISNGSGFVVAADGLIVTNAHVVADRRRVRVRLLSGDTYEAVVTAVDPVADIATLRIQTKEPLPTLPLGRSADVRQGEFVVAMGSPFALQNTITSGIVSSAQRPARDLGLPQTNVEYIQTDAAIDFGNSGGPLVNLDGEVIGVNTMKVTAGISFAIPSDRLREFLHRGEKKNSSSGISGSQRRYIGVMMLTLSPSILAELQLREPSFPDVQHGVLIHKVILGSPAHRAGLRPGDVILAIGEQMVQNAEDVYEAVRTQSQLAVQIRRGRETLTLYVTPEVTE

[2] = target: HtrA2 N-SPD (N-terminal and serine protease domains, residues 1-210)
[3] = target: HtrA2 (High temperature requirement protease A2), mature (Δ133 HtrA2), wild type (UniProt O43464)

Kd [1]: 7.5 µM
B1: 13mer activating peptide SEHRRHFPNCFFV (peptide)
peptide: SEHRRHFPNCFFV

Km, cleavage of FITC-labelled β-casein (steady state kinetics) [2]: 3.02 µM
Km, cleavage of FITC-labelled β-casein (steady state kinetics) [3]: 4.59 µM
B2: FITC-labelled β-casein (natural protein)
chain: RELEELNVPGEIVESLSSSEESITRINKKIEKFQSEEQQQTEDELQDKIHPFAQTQSLVYPFPGPIPNSLPQNIPPLTQTPVVVPPFLQPEVMGVSKVKEAMAPKHKEMPFPKYPVEPFTESQSLTLTDVENLHLPLPLLQSWMHQPHQPLPPTVMFPPQSVLSLSQSKVLPVPQKAVPYPQRDMPIQAFLLYQEPVLGPVRGPFPIIV
modifications: FITC label
